According to publication PMC8213764, “Human intelectin-1 (ITLN1) genetic variation and intestinal expression” (Scientific Reports, 2021):
Numbering of substitutions follows the chain as printed. Several values for one entry are separate records, joined by “and”; a condition that tells them apart may be missing. Equal values may be shown once.

B1: Human intelectin-1 (ITLN1) V109, from V109 homozygote (VV) ileal specimens (natural protein, human (endogenous in ileum), UniProt Q8WWA0 19-298, looked up)
chain: TDEANTYFKEWTCSSSPSLPRSCKEIKDECPSAFDGLYFLRTENGVIYQTFCDMTSGGGGWTLVASVHENDMRGKCTVGDRWSSQQGSKAVYPEGDGNWANYNTFGSAEAATSDDYKNPGYYDIQAKDLGIWHVPNKSPMQHWRNSSLLRYRTDTGFLQTLGHNLFGIYQKYPVKYGEGKCWTDNGPVIPVVYDFGDAQKTASYYSPYGQREFTAGFVQFRVFNNERAANALCAGMRVTGCNTEHHCIGGGGYFPEASPQQCGDFSGFDWSGYGTHVGYS
modifications: single glycosylation site at N163
notes: Human intelectin-1 (ITLN1) with valine at position 109 (rs2274907 A allele), endogenous in ileal mucosa; also called VV genotype; V109-ITLN1; source: endogenous, ileal specimens of V109 homozygote individuals, in lysate
B2: Human intelectin-1 (ITLN1) D109, from D109 homozygote (DD) ileal specimens (natural protein, human (endogenous in ileum), UniProt Q8WWA0 19-298, looked up)
chain: B1 chain with V91D
modifications: single glycosylation site at N163
notes: Human intelectin-1 (ITLN1), natural missense variant rs2274907 (T allele) with aspartic acid at position 109, endogenous in ileal mucosa; Natural allele (rs2274907 T); also called DD genotype; D109-ITLN1; source: endogenous, ileal specimens of D109 homozygote individuals, in lysate

Biological target: the molecule itself
Assay: non-reducing SDS-PAGE immunoblot; human ileal lysates (150 mM NaCl, 1% Triton X-100, 0.5% sodium deoxycholate, 0.1% SDS, 50 mM Tris pH 8.0), heated at 95 °C for 30 min without 2-mercaptoethanol, gradient SDS-PAGE (4-20%), immunoblot; oligomers stable under denaturing conditions

| Protein | stoichiometry N |
| --- | --- |
| B1 | 3 and 6 |
| B2 | 3 and 6 |
